Positions count from the first letter of the chain named.
B1: 2.351.3 (antibody, V domains shown)
VH: QVQLVQSGAEVKKPGASVKVSCKASGYTFIGYYLHWVRQAPGQGLEWMGSINPNSGGTNYAQKFQGRVTMIRDTSINTAYMELSRLRSDDTAVYYCARDKRITMVRGVHYLYYGWDVWGQGTTVTVSS
VL: DIQMTQSPSSLSASVGDRVTITCRASQVISNYLAWYQQKPGKVPQLLIYAASTLQSGVPSRFSGSGSGTDFTLTISSLQPEDVATYYCQNYKSAPWTFGQGTKVEIK
notes: Variable regions only
B2: 3.87.1.1 (antibody, V domains shown)
VH: QVQLVESGGGVVQPGRSLRLSCAASGFTFSSYGMHWVRQAPGKGLEWVAVIWYDRSNKYYADSVKGRFTISRDNSKNTLYLQMNSLRAEDTAVYYCAGGRSRGAFDYWGQGTLVTVSS
VL: DIQMTQSPSSVSASVGDRVTITCRASQGISSWLAWYQQKPGKAPKLLIFAASSLQSGVPSRFSGSGSGTDFTLTISSLQPEDFATYYCQRTNSFPRTFGQGTKVEIK
notes: Variable regions only
B3: 3.457.3.1 (antibody, V domains shown)
VH: B2 VH with Y107F
VL: B2 VL with P40A, F49Y, A50S
notes: Variable regions only
B4: 3.805.1.3 (antibody, V domains shown)
VH: B2 VH
VL: B2 VL with K45N, F49Y, S93N
notes: Variable regions only
B5: 3.472.1.1 (antibody, V domains shown)
VH: B2 VH with A61V
VL: B2 VL with G28D, N92S
notes: Variable regions only
B6: 3.772.2 (antibody, V domains shown)
VH: B2 VH with Y107F
VL: B2 VL with G28D, P40A, F49Y
notes: Variable regions only
B7: 3.341.1 (antibody, V domains shown)
VH: EVQLVESGGGLVQPGGSLRLSCAASGFTFSSYSMNWVRQAPGKGLEWVSFISGSSSTMYYADSVKGRFTISRDNAKNSLYLQMNSLRDEDTAVYYCARLRYFDWSYAFDIWGQGTMVTVSS
VL: DIQMTQSPSSVSTSVGDRVTITCRASQGIRSWLAWYQQRPGKAPKLLIYAASSLQNGVPSRFSGSGSGTDFTLTISSLQPEDFATYFCQQATSFPFTFGPGTKVDIN
notes: Variable regions only; the assays name clone 3.341.2; also called 3.341.2
B8: 3.818.4 (antibody, V domains shown)
VH: B7 VH with F50Y, S56T, Y101H
VL: B7 VL with R30S, N56S, D105G, N107K
notes: Variable regions only
B9: 2.1954.2 (antibody, V domains shown)
VH: QVQLVESGGGVVQPGRSLRLSCAASGFSFSIYGMHWVRQAPGKGLEWVAVIWFDGSNKYYADSVKGRFTISRDNSKNTLYLQMNSLRAEDTALYYCARDKASYYGSGMDYWGQGTLVTVSS
VL: EIVLTQSPGTLSLSPGERATLSCRASQSVSSTYLAWYQHRPGQAPRLLISGASRRATGIPDRFSGSGSGTDFTLTISRLEPEDFAVYYCQHYGSSFTWTFGQGTKVEIK
notes: Variable regions only
B10: 2.2002.3 (antibody, V domains shown)
VH: QVQLVESGGGVVQPGRSLRVSCAASGFMFRSYGMHWVRQAPGKGLEWVAVIWHDGSNKNHGDSVKGRFTISRDNSKNTLYLQMNSLRAEDTAVYYCARGRLAGGGPYYYYYYGMDVWGQGTTVTVSS
VL: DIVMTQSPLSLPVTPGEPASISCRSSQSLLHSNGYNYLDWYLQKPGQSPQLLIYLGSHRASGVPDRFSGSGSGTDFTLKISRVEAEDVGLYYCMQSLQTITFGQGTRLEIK
notes: Variable regions only
B11: 2.737.1.4 (antibody, V domains shown)
VH: QVQLVESGGGLVKPGGSLRLSCAASGFTFRDYYMSWIRQAPGKGLEWVAFISSSGSIIYYADSVKGRFTISRDNAKNSLFLQMNSLRAEDTAVYYCARDGHIAARGMDVWGQGTTVTVSS
VL: DIQMTQSPSSLSASVGDRVTITCRASQSINKYINWYQQKPGKAPKLLIYAASSLQSGVPSRFNGSGSGTDFTFTINTLQPEDFATYYCQQTYSTPPITFGQGTRLEIK
notes: Variable regions only
B12: 2.84.3 (antibody, V domains shown)
VH: QLQLQESGPGLVKPSETLSLTCTVSGGFISSSSYYWGWIRQPPGKGLEWIGTIYYSGTTYYNSSLKSRVTISVDTSQNQFSLKLSSVTAADTAVYYCARHHWVFDYWGQGTLVTVSS
VL: EVVLTQSPDFQSVTPKEKITITCRASQIIGTSLHWYQKKPDQSPKLLIKYASQSFSGVPSRFSGSGSGTEFTLTINSLEAEDTATYYCHQSTNLPWTFGQGTKVEIK
notes: Variable regions only; also called 2.84.1; 2.84.2
B13: 2.998.2 (antibody, V domains shown)
VH: B12 VH with G27D, F28S, S32F, S33I, T58S, S63P, Q77K, S85R, L112Q
VL: DIVLTQFPDFQSVTPKEKVTITCRASQVIGSSLHWYQQKPDQSPKLLIKYASQSFSGVPSRFSGSGSGTDFTLTINSLEVEDAATYYCHQSTILPWTFGQGTKVEVK
notes: Variable regions only
B14: 2.414.2 (antibody, V domains shown)
VH: B12 VH with F28S, S33N, S56T, T58S, S63P, Q77K
VL: B13 VL with D1E, F7S, Q11L, V28I, I75L, V80A, V106I
notes: Variable regions only
B15: 2.542.2 (antibody, V domains shown)
VH: B12 VH with F28S, S33T, T58S, S63P, Q77K, S85N
VL: B13 VL with D1E, F7S, Q11L, V28I, K45N, F55V, I75L, V80A, V106I
notes: Variable regions only
B16: 3.341.2 (antibody, V domains shown)
VH: B7 VH
VL: B7 VL
B17: 2.1623.2 (antibody, V domains shown)
VH: B11 VH with R30S, S35N, A49S, I57T, F80Y
VL: B11 VL with I29F, N30S, K31R, S56G, N63S, F73L, T74A, N76S, T77S
B18: 2.1853.3 (antibody, V domains shown)
VH: B11 VH with R30S, S35N, A49S, F50Y, F80Y, H101R, A103V
VL: DIQMTQSPSSLCASVGDRVTITCRASRSITRYLNWYQQKPGKAPKLLIYGASSLQSGVPSRFSGSGSGTDFTLTISSLQPEDFATYYCQQSYSTPPITFGQGTRLEIK
B19: 2.2071.1.3 (antibody, V domains shown)
VH: B11 VH with R30S, S35N, A49S, F50Y, F80Y, H101R, A103V
VL: B18 VL with C12S, I21L, R27H, T30N, L33I, G50A, S65N, K108T
B20: 2.414.2 (antibody, V domains shown)
VH: B12 VH with F28S, S33N, S56T, T58S, S63P, Q77K
VL: B13 VL with D1E, F7S, Q11L, V28I, I75L, V80A, V106I
B21: 5.16.1 (antibody, V domains shown)
VH: QVQLVQSGAEVKKPGASVKVSCKASGYTFTSYYMYWVRQAPGQGLEWMGIINPSGGSTSYAQKFQGRVTMTRDTSTSTVYMELSSLRSEDTAVYYCARGSSPFFDYWGQGTLVTVSS
VL: DIQMTQSPSSLSASVGDRVTITCRASQIISHFLNWYQQKPGKAPKLLVYVASSLQSGVPSRFSGSGSGTDFTLTISSLQPEDFATYYCQQSFSIPLTFGGGTKVEIK

biological target: PDGFR-beta (UniProt P09619 33-530, limits assumed); assay: method not described
Sequence (P09619 33-530 limits assumed): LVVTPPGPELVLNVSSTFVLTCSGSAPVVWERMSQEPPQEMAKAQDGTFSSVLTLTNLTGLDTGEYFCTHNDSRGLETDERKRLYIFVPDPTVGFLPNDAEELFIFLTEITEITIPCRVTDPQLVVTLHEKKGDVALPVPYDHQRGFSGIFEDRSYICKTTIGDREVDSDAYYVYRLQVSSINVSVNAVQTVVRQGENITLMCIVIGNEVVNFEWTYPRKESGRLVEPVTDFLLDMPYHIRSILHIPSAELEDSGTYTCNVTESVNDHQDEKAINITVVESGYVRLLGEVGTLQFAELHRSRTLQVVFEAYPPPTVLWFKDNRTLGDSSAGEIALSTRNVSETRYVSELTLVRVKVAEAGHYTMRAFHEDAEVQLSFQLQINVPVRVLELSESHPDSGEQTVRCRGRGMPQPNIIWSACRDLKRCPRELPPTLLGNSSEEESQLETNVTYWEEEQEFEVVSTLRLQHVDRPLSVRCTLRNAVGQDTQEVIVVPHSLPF
Throughout, for Average pTyr Inhibition: test concentration or dose not given here.

| binding result | Binder |
| --- | --- |
| no binding | B1 |
| no binding | B2 |
| no binding | B3 |
| no binding | B4 |
| no binding | B5 |
| no binding | B6 |
| no binding | B7 |
| no binding | B8 |
| no binding | B9 |
| no binding | B10 |
| no binding | B11 |
| no binding | B12 |
| no binding | B13 |
| no binding | B14 |
| no binding | B15 |

biological target: FLT3 (UniProt P36888 27-541, limits assumed); assay: method not described

| binding result | Binder |
| --- | --- |
| no binding | B1 |
| no binding | B2 |
| no binding | B3 |
| no binding | B4 |
| no binding | B5 |
| no binding | B6 |
| no binding | B7 |
| no binding | B8 |
| no binding | B9 |
| no binding | B10 |
| no binding | B11 |
| no binding | B12 |
| no binding | B13 |
| no binding | B14 |
| no binding | B15 |

biological target: c-kit (UniProt P10721 26-520, limits assumed); assay: method not described
Sequence (P10721 26-520 limits assumed): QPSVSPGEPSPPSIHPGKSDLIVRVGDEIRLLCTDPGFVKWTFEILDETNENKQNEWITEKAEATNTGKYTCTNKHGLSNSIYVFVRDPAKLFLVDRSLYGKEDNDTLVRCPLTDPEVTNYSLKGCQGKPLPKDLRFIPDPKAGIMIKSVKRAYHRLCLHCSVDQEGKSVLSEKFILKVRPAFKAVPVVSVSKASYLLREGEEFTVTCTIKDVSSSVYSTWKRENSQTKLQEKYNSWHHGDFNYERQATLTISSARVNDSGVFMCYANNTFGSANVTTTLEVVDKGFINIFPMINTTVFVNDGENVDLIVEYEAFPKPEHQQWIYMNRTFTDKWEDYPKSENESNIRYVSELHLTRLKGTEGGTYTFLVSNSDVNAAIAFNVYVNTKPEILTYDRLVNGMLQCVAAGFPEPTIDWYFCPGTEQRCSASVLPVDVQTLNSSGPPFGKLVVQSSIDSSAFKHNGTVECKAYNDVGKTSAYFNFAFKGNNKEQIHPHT

| binding result | Binder |
| --- | --- |
| no binding | B1 |
| no binding | B2 |
| no binding | B3 |
| no binding | B4 |
| no binding | B5 |
| no binding | B6 |
| no binding | B7 |
| no binding | B8 |
| no binding | B9 |
| no binding | B10 |
| no binding | B11 |
| no binding | B12 |
| no binding | B13 |
| no binding | B14 |
| no binding | B15 |

biological target: CSF-1R (UniProt P07333 20-512, limits assumed); assay: method not described
Sequence (P07333 20-512 limits assumed): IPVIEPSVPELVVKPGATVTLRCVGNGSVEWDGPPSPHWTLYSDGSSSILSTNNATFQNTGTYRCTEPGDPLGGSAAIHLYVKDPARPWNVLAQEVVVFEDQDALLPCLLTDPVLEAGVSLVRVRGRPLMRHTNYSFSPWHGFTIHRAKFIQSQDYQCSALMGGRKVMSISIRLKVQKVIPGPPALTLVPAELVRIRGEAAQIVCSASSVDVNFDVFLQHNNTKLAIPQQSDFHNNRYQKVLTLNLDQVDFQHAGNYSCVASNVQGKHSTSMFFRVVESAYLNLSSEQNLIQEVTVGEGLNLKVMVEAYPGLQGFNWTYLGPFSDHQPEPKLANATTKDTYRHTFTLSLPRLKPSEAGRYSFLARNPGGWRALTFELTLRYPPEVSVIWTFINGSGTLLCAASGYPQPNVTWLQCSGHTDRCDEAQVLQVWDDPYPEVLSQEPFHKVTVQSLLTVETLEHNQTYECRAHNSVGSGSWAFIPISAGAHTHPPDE

| binding result | Binder |
| --- | --- |
| no binding | B1 |
| no binding | B2 |
| no binding | B3 |
| no binding | B4 |
| no binding | B5 |
| no binding | B6 |
| no binding | B7 |
| no binding | B8 |
| no binding | B9 |
| no binding | B10 |
| no binding | B11 |
| no binding | B12 |
| no binding | B13 |
| no binding | B14 |
| no binding | B15 |

biological target: T1, PDGFR-alpha on MG-63 cells (human, UniProt P16234 24-1089); assay: cell-based or functional assay
T1 sequence (P16234 24-1089): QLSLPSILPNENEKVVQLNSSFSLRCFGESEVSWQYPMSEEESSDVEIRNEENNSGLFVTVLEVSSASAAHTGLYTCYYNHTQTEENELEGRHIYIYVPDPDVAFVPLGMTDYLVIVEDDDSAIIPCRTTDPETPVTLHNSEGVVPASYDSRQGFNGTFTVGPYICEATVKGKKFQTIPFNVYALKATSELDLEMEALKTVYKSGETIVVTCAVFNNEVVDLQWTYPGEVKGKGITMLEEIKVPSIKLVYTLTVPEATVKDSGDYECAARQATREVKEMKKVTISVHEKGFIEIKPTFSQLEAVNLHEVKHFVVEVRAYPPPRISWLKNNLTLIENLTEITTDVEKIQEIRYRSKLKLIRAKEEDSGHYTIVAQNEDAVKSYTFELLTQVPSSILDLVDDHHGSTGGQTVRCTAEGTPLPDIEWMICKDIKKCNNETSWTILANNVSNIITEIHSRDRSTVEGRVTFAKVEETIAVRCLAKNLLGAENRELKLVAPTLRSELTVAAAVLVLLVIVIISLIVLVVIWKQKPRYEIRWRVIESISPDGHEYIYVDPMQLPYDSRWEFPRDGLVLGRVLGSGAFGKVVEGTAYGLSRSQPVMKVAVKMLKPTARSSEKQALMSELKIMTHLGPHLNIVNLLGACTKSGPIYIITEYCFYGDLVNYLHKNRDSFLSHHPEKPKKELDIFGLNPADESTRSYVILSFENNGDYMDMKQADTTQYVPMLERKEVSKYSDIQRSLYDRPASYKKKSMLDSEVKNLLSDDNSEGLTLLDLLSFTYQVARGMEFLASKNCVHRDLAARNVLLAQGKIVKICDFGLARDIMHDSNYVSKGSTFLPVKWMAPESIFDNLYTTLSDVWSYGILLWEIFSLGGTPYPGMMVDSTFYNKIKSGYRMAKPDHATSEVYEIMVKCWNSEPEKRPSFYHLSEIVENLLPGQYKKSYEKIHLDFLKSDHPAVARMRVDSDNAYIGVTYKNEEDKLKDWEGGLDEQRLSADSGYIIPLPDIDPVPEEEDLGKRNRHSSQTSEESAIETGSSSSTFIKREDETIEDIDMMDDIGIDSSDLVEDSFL

| Average pTyr Inhibition [%] | Binder |
| --- | --- |
| > 100 | B16 |
| > 100 | B17 |
| > 100 | B18 |
| > 100 | B19 |
| 98 | B20 |

biological target: T1, PDGFR-alpha on MG-63 cells; assay: cell-based or functional assay; remark: another data set of the same source

| PROLIFERATION ASSAY: MG-63 CELLS, IC50 [nM] | Binder |
| --- | --- |
| 2.8 | B21 |
| 3.1 | B16 |
| 6.5 | B17 |
| 18 | B18 |
| 3.3 | B19 |
| 2.3 | B20 |
